How the values were obtained:
[1] = target: T1, CXCR3A‐transfected CHO cells (human CXCR3A) (Homo sapiens, UniProt P49682); details: CXCR3‐transfected CHO cells; n = 4; cited from earlier work
T1 sequence (P49682 1-368): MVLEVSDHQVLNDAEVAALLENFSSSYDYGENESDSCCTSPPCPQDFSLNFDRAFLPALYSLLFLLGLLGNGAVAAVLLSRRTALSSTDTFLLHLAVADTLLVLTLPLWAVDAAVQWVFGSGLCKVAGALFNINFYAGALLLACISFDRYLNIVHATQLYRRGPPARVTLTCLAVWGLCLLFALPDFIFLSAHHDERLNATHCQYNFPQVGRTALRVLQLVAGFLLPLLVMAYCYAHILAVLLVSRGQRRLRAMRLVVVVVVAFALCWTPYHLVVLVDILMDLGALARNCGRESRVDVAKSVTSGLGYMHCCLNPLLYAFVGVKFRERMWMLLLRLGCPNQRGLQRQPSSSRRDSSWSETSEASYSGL

[2] = test system: TGF‐β1‐stimulated human fibroblasts; assay: Induction assay: fibrotic marker mRNA; assay type: cell-based; details: primary human fibroblasts, TGF‐β1 5 ng mL^−1, 48 h, only at the highest test concentration 100 nM; qPCR; n = 4

Substance: CXCL9(1–103): authentic full‐length human CXCL9 chemokine of 103 amino acids (Peprotech)
- calcium response [1]: 598.1 ± 22.9 nM
- collagen III mRNA expression [2]: significant reduction
